# Laboratory results published in paper doi:10.1101/2021.04.27.441718.
# T1: RbpB (Bacteroides thetaiotaomicron VPI-5482, UniProt Q8A6J4 1-100)
# T1 sequence: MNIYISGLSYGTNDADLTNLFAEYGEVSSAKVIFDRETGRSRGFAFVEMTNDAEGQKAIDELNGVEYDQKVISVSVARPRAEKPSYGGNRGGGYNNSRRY
# Tests used:
# RbpB [1] = target: T1, RbpB; test: EMSA
# RbpB [2] = target: T1, RbpB; test: EMSA; remark: listed apart in the source
Binder,Kd (RbpB [1]),binding result (RbpB [2])
GUAGGAUAGUAGGAUAGUAGGAUA (ssRNA) [Motif 1 x3],5.1 µM,–
UCCUGUGCUCCUGUGCUCCUGUGC (ssRNA) [Motif 9 x3],–,no binding
